Test [1] concerns the target recombinant WT HIV-1 JRCSF gp120 core polypeptide (HIV-1 subtype B, strain JRCSF) (UniProt P20871). As to the kind of experiment: SPR (Biacore 2000), KA = ka/kd from a single-site fit; * best curve fit, dissociation slower than the limit of detection of the instrument. (In general: In SPR one partner is held on a chip, and binding of the other changes the refractive index at the surface.)

Test [2] concerns the target recombinant WT HIV-1 JRCSF gp120 full-length polypeptide (HIV-1 subtype B, strain JRCSF) (UniProt P20871). Described as above.
Test [3] addresses HIV-1 1196 gp160 envelope protein on pseudovirus (HIV-1 subtype B, strain 1196). As to the kind of experiment: cell-based or functional assay.
Test [4] addresses HIV-1 6535 gp160 envelope protein on pseudovirus (HIV-1 subtype B, strain 6535). As to the kind of experiment: cell-based or functional assay.
The target in test [5] is HIV-1 92HT594 gp160 envelope protein on pseudovirus (HIV-1 subtype B, strain 92HT594). As to the kind of experiment: cell-based or functional assay.
Test [6] has as its target HIV-1 92RW020 gp160 envelope protein on pseudovirus (HIV-1 subtype A, strain 92RW020). The experiment in a line: cell-based or functional assay.
The target of test [7] is HIV-1 93BR020 gp160 envelope protein on pseudovirus (HIV-1 subtype F, strain 93BR020). The experiment in a line: cell-based or functional assay.
The target in test [8] is HIV-1 93BR029 gp160 envelope protein on pseudovirus (HIV-1 subtype F, strain 93BR029). As to the kind of experiment: cell-based or functional assay.
The target in test [9] is HIV-1 93MW960 gp160 envelope protein on pseudovirus (HIV-1 subtype C, strain 93MW960). The experiment in a line: cell-based or functional assay.
The target in test [10] is HIV-1 93TH305 gp160 envelope protein on pseudovirus (HIV-1 subtype E, strain 93TH305). As to the kind of experiment: cell-based or functional assay.
The target of test [11] is HIV-1 BaL gp160 envelope protein on pseudovirus (HIV-1 subtype B, strain BaL). The experiment in a line: cell-based or functional assay.
In test [12] the target is HIV-1 JRCSF gp160 envelope protein on pseudovirus (HIV-1 subtype B, strain JRCSF) (UniProt P20871). As to the kind of experiment: cell-based or functional assay.
Test [13] concerns the target HIV-1 NL4-3 gp160 envelope protein on pseudovirus (HIV-1 subtype B, strain NL4-3). The experiment in a line: cell-based or functional assay.
Test [14] has as its target HIV-1 QH0692 gp160 envelope protein on pseudovirus (HIV-1 subtype B, strain QH0692). As to the kind of experiment: cell-based or functional assay.
In test [15] the target is HIV-1 QZ4589 gp160 envelope protein on pseudovirus (HIV-1 subtype B, strain QZ4589). As to the kind of experiment: cell-based or functional assay.
Test [16] concerns the target HIV-1 SF162 gp160 envelope protein on pseudovirus (HIV-1 subtype B, strain SF162). As to the kind of experiment: cell-based or functional assay.
Test [17] deals with HIV-1 VLGCG4 gp160 envelope protein on pseudovirus (HIV-1 subtype G, strain VLGCG4). As to the kind of experiment: cell-based or functional assay.
Test [18] addresses amphotropic MLV envelope protein on pseudovirus (amphotropic murine leukemia virus). As to the kind of experiment: cell-based or functional assay.
In test [19] the target is chimeric gp120 core polypeptide variant L7-043CDC. As to the kind of experiment: SPR (Biacore 2000), KA = ka/kd from a single-site fit.
Test [20] addresses chimeric gp120 core polypeptide variant L7-043. The description is as above.
Test [21] deals with recombinant WT HIV-1 JRCSF gp120 core polypeptide (HIV-1 subtype B, strain JRCSF) (UniProt P20871). The test is described as above.
Test [22] concerns the target recombinant WT HIV-1 JRCSF gp120 full-length polypeptide (HIV-1 subtype B, strain JRCSF) (UniProt P20871). The description is as above.
Test [23] addresses chimeric gp120 core polypeptide variant L7-043. As to the kind of experiment: SPR (Biacore 2000), KA relative to the JR-CSF gp120 core row (= 1).
Test [24] addresses recombinant WT HIV-1 JRCSF gp120 core polypeptide (HIV-1 subtype B, strain JRCSF) (UniProt P20871). The experiment in a line: SPR (Biacore 2000), mAb captured on anti-human gamma chain antibody, gp120 injected.
For test [25], the target named is recombinant WT HIV-1 JRCSF gp120 full-length polypeptide (HIV-1 subtype B, strain JRCSF) (UniProt P20871). The test is described as above.
Test [26] has as its target chimeric gp120 core polypeptide variant L7-043CDC. As to the kind of experiment: SPR (Biacore 2000), mAb captured on anti-human gamma chain antibody, gp120 core injected.

The source of these data is patent US20110262474A1.

In the case of human monoclonal antibody IgG1b6, the Ka was determined as 6.32e+12 M⁻¹ in [1] and 4.08e+11 M⁻¹ in test [2].

Consider human monoclonal antibody IgG1b12, for which the IC50 neutralization titer of pseudovirus (luciferase entry assay) in [3] turned out to be 0.48 µg/mL; in test [4], 0.64 µg/mL; in test [5] it was 0.02 µg/mL; in test [6], 1.67 µg/mL; in test [7], 2.08 µg/mL; in [8], 1.67 µg/mL. Besides, the IC50 neutralization titer of pseudovirus (luciferase entry assay) in test [9] is 0.06 µg/mL; in [10] it was 0.71 µg/mL; in test [11], 0.01 µg/mL; in test [12], 0.06 µg/mL; in test [13], 0.01 µg/mL; in test [14] it was 0.1 µg/mL. Besides, the IC50 neutralization titer of pseudovirus (luciferase entry assay) in [15] was 0.03 µg/mL; in [16] it was 0.01 µg/mL; in test [17], 0.04 µg/mL; in test [18] it was over 2.5 µg/mL. The Ka was 2.58e+08 M⁻¹ in [19]; 3.8e+08 M⁻¹ in test [20]; 3.43e+07 M⁻¹ in test [21]; 3.62e+07 M⁻¹ in test [22]; over 1e+07 M⁻¹ in test [24]; over 1e+07 M⁻¹ in [25]. The substance also registered a Fold Increase in test [23] of 11. Moreover, in [26], the fold increase in b12 affinity against JRCSF gp120 core polypeptide is over 7.5 fold.
